Results on four substances are retold here after PMC8062024.

Read-outs that look alike come from different tables or passages of the source.

Take “PmCOX (Penaeus monodon cyclooxygenase): N424Q”: for the setting “N-glycosylation at N424”, the enzymatic_activity result is “abolishes, secreted PGE2 2.79 nM vs 7.40 nM wild type (empty vector 2.68 nM)”.

Take “PmCOX (Penaeus monodon cyclooxygenase): N79Q/N170Q/N424Q triple mutant”: the enzymatic_activity entry (N-glycosylation at N79) is reported as “abolishes, secreted PGE2 2.23 nM vs 7.40 nM wild type (empty vector 2.68 nM)”; the enzymatic_activity entry (N-glycosylation at N170) is on record as “abolishes, secreted PGE2 2.23 nM vs 7.40 nM wild type (empty vector 2.68 nM)”; the enzymatic_activity result (N-glycosylation at N424) is recorded as “abolishes, secreted PGE2 2.23 nM vs 7.40 nM wild type (empty vector 2.68 nM)”. The expression_or_secretion result was “decreases” (N-glycosylation at N79), “decreases” (N-glycosylation at N170) and “decreases” (N-glycosylation at N424).

Regarding “PmCOX (Penaeus monodon cyclooxygenase): N170Q”, the enzymatic_activity result (N-glycosylation at N170) is given as “abolishes, secreted PGE2 2.45 nM vs 7.40 nM wild type (empty vector 2.68 nM)”.

Turning to “PmCOX (Penaeus monodon cyclooxygenase): N79Q”, for the setting “N-glycosylation at N79”, the enzymatic_activity entry is “no change, secreted PGE2 8.65 nM vs 7.40 nM wild type (40 uM ARA)” and the expression_or_secretion entry is “no change”.
